# Reference: patent US20230399390A1 (NOVAGO THERAPEUTICS, published 2023)
# T1: peptide 35: 137-EPENINAALQETEAP-151 (human)
# T1 construct: Spotted on a nitrocellulose membrane; The range counts on the d20plus region; also called spot 35
# T1 peptide: EPENINAALQETEAP
# T2: peptide 34: 133-EEIKEPENINAALQE-147 (human)
# T2 construct: Spotted on a nitrocellulose membrane; The range counts on the d20plus region, not on full-length Nogo-A; also called spot 34
# T2 peptide: EEIKEPENINAALQE
# T3: peptide 36: 141-INAALQETEAPYISI-155 (human)
# T3 construct: Spotted on a nitrocellulose membrane; The range counts on the d20plus region; also called spot 36
# T3 peptide: INAALQETEAPYISI
# T4: human Nogo-A d20plus region (human aa position 543-866), recombinantly produced in E. coli (human, UniProt Q9NQC3 543-866)
# T4 construct: range 543-866; also called human d20plus; hu d20+
# T4 sequence (looked up): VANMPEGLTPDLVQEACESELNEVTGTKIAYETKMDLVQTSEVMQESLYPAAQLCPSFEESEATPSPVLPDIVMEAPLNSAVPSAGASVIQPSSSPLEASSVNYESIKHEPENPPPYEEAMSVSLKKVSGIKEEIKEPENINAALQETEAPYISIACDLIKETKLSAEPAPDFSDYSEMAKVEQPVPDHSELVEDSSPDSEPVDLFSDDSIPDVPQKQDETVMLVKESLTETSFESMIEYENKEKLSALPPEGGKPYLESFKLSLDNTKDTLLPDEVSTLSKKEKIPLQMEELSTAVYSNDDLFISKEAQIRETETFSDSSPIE
# T5: rat Nogo-A d20plus region, recombinantly produced in E. coli (rat, UniProt Q9JK11 520-843, limits assumed)
# T5 construct: domain: d20plus; also called rat d20plus; rat peptide d20plus
# T5 sequence (looked up): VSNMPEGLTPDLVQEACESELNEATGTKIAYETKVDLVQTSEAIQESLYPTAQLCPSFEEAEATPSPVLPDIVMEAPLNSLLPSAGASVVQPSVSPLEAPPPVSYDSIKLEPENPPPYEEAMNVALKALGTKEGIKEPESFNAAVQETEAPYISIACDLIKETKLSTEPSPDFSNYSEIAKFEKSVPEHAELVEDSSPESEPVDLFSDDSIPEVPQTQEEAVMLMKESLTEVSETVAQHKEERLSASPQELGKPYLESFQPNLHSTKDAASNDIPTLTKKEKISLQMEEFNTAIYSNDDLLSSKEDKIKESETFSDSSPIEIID
# Columns and labels:
# [1] = biological target: T1, peptide 35: 137-EPENINAALQETEAP-151; test: pepscan, 15-mer peptides on nitrocellulose, NG004 at 1 ug/ml
# Description: (§1) Epitope mapping of NG004 was performed using scans of overlapping peptides. The sequences of the d20plus region of Nogo-A (aa 543-866 of human Nogo-A) were synthesized as linear 15-mer peptides with an 11 amino acid overlap between individual peptides. Those peptides were spotted onto nitrocellulose membranes (JPT Peptide Technologies, Berlin, Germany). The membrane was activated for 5 min in methanol and washed in TBS for 10 min at RT. Non-specific binding sites were blocked for 2 hours at RT with Roti®-Block (Carl Roth GmbH+Co. KG, Karlsruhe, Germany). NG004 (1 μg/ml) was incubated in Roti®-Block for 3 h at room temperature. Binding of primary antibody was determined using HRP-conjugated donkey anti-human IgG secondary antibody. Blots were developed and evaluated using ECL and ImageQuant 350 detection (GE Healthcare, Otelfingen, Switzerland).
# [2] = biological target: T2, peptide 34: 133-EEIKEPENINAALQE-147; test: as above
# Description: as §1
# [3] = biological target: T3, peptide 36: 141-INAALQETEAPYISI-155; test: as above
# Description: as §1
# [4] = biological target: T4, human Nogo-A d20plus region (human aa …); test: ELISA, plate coated with 3 ug/ml human d20plus
# Text: (§2) The neurite outgrowth inhibitor Nogo-A contains 3 inhibitory regions. Two are shared with the splice variant Nogo-B (Nogo-66 located between the two transmembrane regions and the NIR domain at the tip of the N-terminus) and one is shared with the splice variant Nogo-C (Nogo-66). The unique, highly inhibitory domain for neurite outgrowth of Nogo-A is located in the exon 3 of Nogo-A and is called delta 20 region (d20; human aa position 566-748) (Oertle et al., J. Neurosci. 23 (2003), 5393-5406). To confirm the binding properties of antibodies NG004 NG034 and to monitor for cross-reactivity to other species like rat, an ELISA with a fragment containing the d20 region plus some additional amino acids C- and N-terminal of the inhibitory region (human aa position 543-866) was performed. This fragment is called rat or human d20plus and is recombinantly produced in E. coli. To examine that the antibody binds strongly to the d20plus region and to compare the binding properties of the subject antibodies NG004 and NG034 to the already known antibodies (11C7 and Ozanezumab) the ELISA was used and EC₅₀ values were compared.
# (§3) The ELISA is performed according to a standard protocol (Engvall & Perlmann, J. Immunol. 109 (1972), 129-135, Engvall & Perlmann, Immunochemistry 8 (1971), 871-874). […] The readouts are performed on the Tecan Sparc plate reader.
# [5] = biological target: T4, human Nogo-A d20plus region (human aa …); test: ELISA, coated d20plus (human, as read from the context), internal standard
# [6] = biological target: T5, rat Nogo-A d20plus region, …; test: ELISA, coated rat d20plus
# Text: as §2, §3
# [7] = biological target: T4, human Nogo-A d20plus region (human aa …); test: ELISA, coated human d20plus
# Text: as §2, §3
binder,measurement,setting,value
"anti-Nogo-A specific human antibody NG004 (antibody, V domains shown, The neurite outgrowth assay used NG004.h4.m1 (human IgG4 S228P) and NG004.m1 (mouse IgG1); also called NG004.m1; NG004.h4.m1) VH: EVQLVESGGGVVQPGRSLRLSCAASGFTFRSHAMHWVRQAPGKGLEWVAVTSYDGTNKYYADSVKGRFTISKDNSKNTLYLQMDSLRVEDTAVYYCARGRAVAGTREDYWGQGTLVTVSS VL: not shown",binding result,[1],binds
same,binding result,[2],binds
same,binding result,[3],binds
same,EC50,[4],260 pM
"Ozanezumab (antibody, V domains shown) VH: QVQLVQSGAEVKKPGASVKVSCKASGYTFTSYWMHWVRQAPGQGLEWIGNINPSNGGTNYNEKFKSKATMTRDTSTSTAYMELSSLRSEDTAVYYCELMQGYWGQGTLVTVSS VL: DIVMTQSPLSNPVTLGQPVSISCRSSKSLLYKDGKTYLNWFLQRPGQSPQLLIYLMSTRASGVPDRFSGGGSGTDFTLKISRVEAEDVGVYYCQQLVEYPLTFGQGTKLEIK",EC50,[5],200 pM
"anti-Nogo-A specific human antibody NG034 (antibody, V domains shown) VH: EVQLVETGGGLVPPGGSLRLSCAASGFTFTNYSMHWVRLAPGKRLEYISAISSDGGDPFYASSVKGRVAISRDNSKKTLYLQMGRLRPEDTAVYYCVSDAFDVWGQGTMVTVSS VL: EIVLTQSPLSLSVTLGQPASISCRSSQSLLYSNGNTYLNWFQQRPGQSPRRLLYRVSNRDSGVPDRFSGSGSGTHFTLKISRVEAEDVGVYYCMQGTHWPRTFGQGTKVEIK",EC50,[6],229 pM
same,EC50,[7],298 pM
